# Reference: publication PMC10720262 (Cell Reports, 2023)
# Residue numbers refer to the chain shown, from its start.
# B1: CL-511905 (antibody, V domains shown)
# VH: QVQLVESGGGVVQPGRSLRLSCAASGFTFSGSGMHWVRQAPGRGLEWVAIIWYDGSHKYYVDSVQGRFIISRDNSKNTLYLEMNSLRVEDTAVYYCVRAYPSGSSNDKYGMDVWGQGTTVTVSS
# VL: not shown
# B2: CL-510596 (antibody, V domains shown)
# VH: QVQLEESGGGVVQPGRSLRLSCTATGFTFSNYGMHWVRQAPGKGLEWVAVIWYDGSNKYYVDSVKGRFTISRDNSKNTLYLQMNSLRAEDTAVYYCARDGGYYGSGSYWWFDSWGQGTLVTVSS
# VL: not shown
# B3: CL-510499 (antibody, V domains shown)
# VH: QVQLVESGGGLVQPGRSLTLSCAASGFTFSNYGMHWVRQTPGKGLEWVALIRYDGSYKFYADSVKGRFTISRDNSKNTLYLQMNSLRAEDTAIYFCARDGDYSNSAGDFDYWGQGTLVTVSS
# VL: EIVLTQSPGTLSLSPGERATLSCRASQSVSSTNLAWYQQKPGQAPRLLIYGVSSRATGIPDRFSGSGSGTDFTLTINRLEPEDFAVYYCQQHGRSFTFGPGTKVEIK
# B4: CL-511771 (antibody, V domains shown)
# VH: QVQLVESGGGVVQPGRSLRLSCAASGFTFSNSGMHWVRQAPGKGLEWVAIIWYDGSNKYYAESMKGRFTISRDNSKNTLYLQMNSLRAEDTAVYYCARDGTTNAFDLWGQGTMVTVSP
# VL: not shown
# B5: CL-511073 (antibody, V domains shown)
# VH: QVQLVESGGGVVQPGRSLRLSCAASGFSFSSHGMHWVRQAPGKGLEWVSIIWYDGSNKFYADSVKGRFTISRDNSKNTLYLQMNSLRAEDTAVYYCARDGYDVLTGHYNWFDPWGQGTLVTVSS
# VL: EIVMTQSPATLSVSPGERATLSCRASQSVSSKLAWYQQKPGQAPRLLIYGASTRATGIPARFSGSGSGTDFTLTISSLQSEDFAVYYCQQYNNWWTFGHGTKVEIK
# B6: CL-512023 (antibody, V domains shown)
# VH: QVQLMESGGGVVQPGRSLRLSCEASGFTFSNSGMHWVRQAPGKGLEWVAIIWYDGSNRYYVDSVKGRFTISRDNSKNTLYLQMNSLRAEDTAVYYCARDGGNRYGYGWFDSWGQGTLVTVSS
# VL: QSVLTQPPSVSGAPGQRVTISCTGSSSNIGAGYDVHWYQQLPGTAPKLLIYGNTNRPSGVPDRFSGSKSGTSASLAITGLQAEDEADYYCQSYDSSLGGSRRVFGGGTKLTVL
# B7: CL-511776 (antibody, V domains shown)
# VH: QVQLVESGGGVVQPGRSLTLSCAASGFTFSNFGMHWVRQAPGKGLEWMAVIWYDGNNEFYADSVKGRFTISRDNSKNMLYLHMNSLRAEDTAIYYCAREGDYSASGSHWLFDPWGQGTQVTVSS
# VL: DIQMTQSPSTLSASVGDSITITCRASQSINIWLAWYQQKPGKAPNLLIYKASSLESGVPSRFSGSGSGTEFTLTINSLQPDDFATYYCQQYNNYVTFGGGTKVEIK
# B8: CL-510453 (antibody, V domains shown)
# VH: QVQLVESGGGVVQPGRSLRLSCAASGFTFSSYGMHWVRQAPDKGLEWVAIIWYDGSKKYYADSVKGRFTVSRDNSKNTLYLQMNSLRAEDTAVFYCARSFDYESGGFYSFDYWGQGTLVSVSS
# VL: DIQMTQSPSTLSASVGDRVTITCRASQSISSWLAWYQQKPGKAPKLLIYRASSLASGVPSRFSGSGSGTEFTLTISSLQPDDFATYYCQQYNSYWTFGQGTKVEFK
# B9: CL-512011 (antibody, V domains shown)
# VH: QVQLVESGGGVVQPGRSLRLSCVTSGFTFSSFGMHWVRQAPGKGLEWVALIWYDGSHKFYADSLTGRFTISRDNSKNTLYLQMNSLRVEDTAVYYCARAHAVTTANDKYGTDVWGQGTTVNVSP
# VL: B8 VL with Q38H, K42N, R50K, S53N, A55E, Y87F, F105V
# B10: CL-510640 (antibody, V domains shown)
# VH: QVQLVESGGGVVQPGRSLRLSCAASGFTFSNYGMHWVRQAPVKGLEWVAIIWYDGSNKFYADSVRGRFIISRDNSKNTLYLQMNSLRAEDTAVYFCARAREGQNSDYYGSETSYTFDSWGLGTLVTVSS
# VL: B8 VL with L46F, R50K, A55E, N92K, F105I
# B11: CL-511296 (antibody, V domains shown)
# VH: QVQLVASGGGVVQPGRSQRLSCAASGFTFSNYGMHWVRQSPGRGLEWVAIIWYDGSNKFYADSVKGRFTISRDNSRNTLFLQMNSLRAEDTAIYYCAKSEERTSDNYFKYGMDVWGQGTTVIVST
# VL: B8 VL with R50K, S53N, A55E, T74S, S77N, Y87F, N92T, F105I
# B12: CL-511862 (antibody, V domains shown)
# VH: QVQLVESGGGVVQPGKSLRLSCAASGFSFSSSGMHWVRQAPDKGLEWVAIIWYDGSHKFYADSVKGRFTISRDNSDNTLFLQMDSLRAEDTAVYYCVRAYPTSYNGNYDKYGMDVWGQGTTVTVSS
# VL: B8 VL with T22A, S31T, R50K, S53T, A55E, Y91F, N92T, S93F, F105I
# B13: CL-510487 (antibody, V domains shown)
# VH: B2 VH with K43R, A49G, Y59F
# VL: B8 VL with R50K, A55E, S56R, S93R, W95C, T96S, V103L, F105I
# B14: CL-510700 (antibody, V domains shown)
# VH: QVQLVESGGGVVQPGRSLRLSCAASGFTFSDFGMHWVRQTPGKGLEWVAIIWYDGSNKFYADSVKGRFTISRDNSKNTLFLQMNSLRAEDTAVYYCARSGVYYGSGSHFDYWGQGTLVTVSS
# VL: B8 VL with Q38L, R50K, S53N, A55E, S56T, S60L, W95L, F105I
# B15: CL-512264 (antibody, V domains shown)
# VH: B9 VH with S31N, L50I, H57N, T65K, Y80F, V88A, A101T, N121T, P124S
# VL: B8 VL with Q38H, R50K, A55E, Y87F, F105I
# B16: CL-511026 (antibody, V domains shown)
# VH: QVQLVESGGGVVQPGRSLRLSCAASGFTFSNFGMHWVRQAPDRGLEWVSIIWYDGSNKFYADSVKGRFTISRDNSKNTLFLQMDSLRAEDTAVYYCAKAEMRTSDYYNYGMDVWGQGTTVTVSS
# VL: B8 VL with R50K, A55E, G68A, S76R, N92Y, F105I, K106N
# B17: CL-512275 (antibody, V domains shown)
# VH: B9 VH with R16G, L18F, V23E, S31N, A101S, N121T
# VL: B8 VL with Q38H, K42R, R50K, A55E, V58I, Y87F, F105I
# B18: CL-512296 (antibody, V domains shown)
# VH: QVQLVESGGGVVQPGRSLRLSCAASGFTFSNYGMHWVRQAPGKGLEWVAVIWYDGSKKFYADSVMGRFTISRDNSKNTLVLQMNSLGAEDTAVYYCARDRGYSGYVFDYWGQGTLVTVSS
# VL: QSALTQPASVSGSPGQSIAISCTGTSSDVGGYNFVSWYRHHPGKAPKLMIYDVSNRPSGVSNRFSGSKSGNTASLTISGLQAEDEADYYCCSYAGSCSVFGGGTKLTVL
# B19: CL-510469 (antibody, V domains shown)
# VH: QVQLVESGGGVVQPGRSLRLSCAASGFTFSSYGMHWVRQAPGKGLEWVAVIWYDGSNQFYTDSVKGRFTISRDNSKNTLYLHMNSLRVEDTAIYYCARDGDYSSSAGDFDYWGQGTLVTVSS
# VL: not shown
# B20: CL-510484 (antibody, V domains shown)
# VH: QVQLVESGGGVVQPGRSLRLSCAASGFTFSNYGMNWVRQAPGKGLEWMAVIWYDGSNKYYGDSVKGRFTISRDNSKNTLYLQMISLRAEDTAVYFCAKSGEFYGSGSHFDYWGQGTLVTVSS
# VL: not shown
# B21: CL-510458 (antibody, V domains shown)
# VH: QVQLVESGGGVVQPGRSLRLSCAASGFTFNNYGMHWVRQAPGKGLEWVAVIWYDGSNKFHADSVKGRFTISRDNSKNTLYLQMNSLRAEDTALYYCARVYYYDSGSYLDYWGQGTLVTVSS
# VL: DIQMTQSPSSVSASVGDRVTITCRASQGISRWLAWYQQKPGKAPKLLIYAASSLQSGVPSRFSGSGSGTDFTLTISSLQPEDFATYCCQQANNFPWTFGQGTKVEIK
# B22: CL-510632 (antibody, V domains shown)
# VH: B21 VH with N30S, H60Y, M83T, L93V, S106N, T118A
# VL: B21 VL with S30N, R31N, W32C, S77N, N93S
# B23: CL-510514 (antibody, V domains shown)
# VH: QVQLVESGGGVVQPGRSLRLSCTTSGFTFSNFGMHWVRQAPGKGLEWVALIWYDGSNKYYADSVKGRFTISRDNSKNTLYLQMNGLRAEDTAVYYCARDGGYYYGSGGAFDIWGQGTMVTVSS
# VL: not shown
# B24: CL-512206 (antibody, V domains shown)
# VH: QVQLVESGGGVVQPGRSLRLSCAASGFTFSHYGMHWVRQAPGKGLEWVAVIWYDGNNKFYADSVKGRFTISRDNSNNTLYLQMNSLRAEDTAVYHCVRERTGATSRGFDFWGQGTLVTVSS
# VL: QSVLTQPPSVSAAPGQKVTISCSGSDSNIEKYYVSWYQQLPGSAPKLLIYDNNKRPSGIPDRFSGSKSGTSATLGITGLQTGDEAVYYCGTWDSSLSTGVFGGGTKLTVL
# B25: CL-512191 (antibody, V domains shown)
# VH: QVQLVESGGGVVQPGRSLRLSCAASGFTFSNYAMHWVRQAPGKGLEWVAVIWYDGSNKYYADSVKGRFTISRDDSKNTLYLQMNSLRAEDTAVYYCARDKGYRYGFNWFDPWGQGTLVTVSS
# VL: QSVLTQPPSVSGAPGQRVTISCTGSSSNIGAGYDVHWYQKLPGTAPKLLIFSNSNRPSGVPDRFSGSKSGTSASLAITGLQAEDEADYYCQSYDSSLSGSRVFGGGTKLTVL
# Molecular target: recombinant full-length PfCSP (Plasmodium falciparum circumsporozoite protein, strain NF54) (Plasmodium falciparum NF54, UniProt P19597)
# Sequence (P19597 20-375): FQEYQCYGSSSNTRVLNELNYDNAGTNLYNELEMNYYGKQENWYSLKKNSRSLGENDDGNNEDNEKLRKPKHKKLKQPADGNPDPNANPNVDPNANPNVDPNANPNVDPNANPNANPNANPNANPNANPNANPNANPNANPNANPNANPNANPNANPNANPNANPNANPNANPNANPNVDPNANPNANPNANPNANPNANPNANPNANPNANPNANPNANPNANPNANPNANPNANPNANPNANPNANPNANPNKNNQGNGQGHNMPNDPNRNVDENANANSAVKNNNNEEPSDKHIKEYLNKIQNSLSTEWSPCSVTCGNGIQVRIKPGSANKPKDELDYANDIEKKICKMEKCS
row,Binder,binding result
1,B1,binds
2,B2,binds
3,B3,binds
4,B4,binds
5,B5,binds
6,B6,binds
7,B7,binds
8,B8,binds
9,B9,binds
10,B10,binds
11,B11,binds
12,B12,binds
13,B13,binds
14,B14,binds
15,B15,binds
16,B16,binds
17,B17,binds
18,B18,binds
19,B19,binds
20,B20,binds
21,B21,binds
22,B22,binds
23,B23,binds
24,B24,binds
25,B25,binds
